Assay: soluble on expression in E. coli; label from the status in PepcDB or PDB records

| Sequence | soluble on expression in E. coli |
| --- | --- |
| MGFFDRLKAGLAKTRERLLKAIPWGGNLEEVLEELEMALLAADVGLSATEEILQEVRASGRKDLKEAVKEKLVGMLEPDERRATLRKLGFNPQKPKPVEPKGRVVLVVGVNGVGKTTTIAKLGRYYQNLGKKVMFCAGDTFRAAGGTQLSEWGKRLSIPVIQGPEGTDPAALAYDAVQAMKARGYDLLFVDTAGRLHTKHNLMEELKKVKRAIAKADPEEPKEVWLVLDAVTGQNGLEQAKKFHEAVGLTGVIVTKLDGTAKGGVLIPIVRTLKVPIKFVGVGEGPDDLQPFDPEAFVEALLED | soluble |
| MSLNVLIIGAGAVGLCLAAKLSNVADVFAVTRERNAKIIRESGFKMTGIWGEGTFNFEASENVPERDFDYIIISSKGLATKSICEQFKDVINGKNVISMQNGVGNEEIILRYTDKVIGGTIITGFEWKGDAKVHVSVEGGPMTVGRFPNGTDKEVTDFVKLIKSSGIPVNETENIQGAIWSKTIYNCALNPLGAVMNVPYGELSNEHSWNIIKNIVSEIFEITSKKGVILPWKTSEEYLKYLKEFQLPNTAAHHSSMLQDISKGNITEIDFLNGAVVTIAKEFGIKTPYNKFITEQIKFLENLKSKKEGHHHHHH | soluble |
| MGRGRKHTDAAAEQRELAIKANIVDEPFSVSAIDRSIRKAEWVKTETDQILSGRCPETDGTWLGISTRGRVAFLVEAGTINRDRFNGAESRTLEFLESNESPEDFAKSSAADYIRNKNTAAFHLIVADIASNSMLYISKPRFSDYGIVYTEPVGPGVHTLSSAGLDSDVGYRDLRMRHSFCEMINRERLPPIRDIAEIMYDPVKAYESVLLSSIFFVDMKIGYEHYGTRITTALVVKRTKEVLFFERYREIFNDDWDDHDFAFTII | not soluble |
| GPGSMSALNDSRTTSGRPLPGGKPYALRPEGIPPSLCGDNVGASRGGDSIGDFKTAFEQPHSIDSEEEGDVEAASSPEQRLRRVQRDVYRHERQIASLFSEKHEHCEHLATVYKELEKVLRKIQLAPLEDLKGHAASPSASTFCAPSSDEDGYAASSTVSALASSLQQRFHQVLQQHQDRVYDVLVDYRQQINKSEYETGRRLCAIEEAIAQIQSDVRELQHTASIQVEELRHVQQDVRQRVEAVAVQQEAQRAALDATREARDTKAAKLLSKIQDDVAGLRADAKAARTQQIESAKDVEEQIRSLLSAQHRTEEALGAHSASIAQLQNQDSLEGAFHEVKDWLGDLEKRMVSRGELLQWTASLQSEIHQMRRVTGGVLSHTIEPTAPGQDA | soluble |
| MTIALELQQLKKTYPGGVQALRGIDLQVEAGDFYALLGPNGAGKSTTIGIISSLVNKTSGRVSVFGYDLEKDVVNAKRQLGLVPQEFNFNPFETVQQIVVNQAGYYGVERKEAYIRSEKYLKQLDLWGKRNERARMLSGGMKRRLMIARALMHEPKLLILDEPTAGVDIELRRSMWGFLKDLNDKGTTIILTTHYLEEAEMLCRNIGIIQHGELVENTSMKALLAKLKSETFILDLAPKSPLPKLDGYQYRLVDTATLEVEVLREQGINSVFTQLSEQGIQVLSMRNKANRLEELFVSLVNEKQGDRA | not soluble |
| EKDSVLRHNINKLGLTSIAVEPVAAWKLNDRHSFGAGIIAQHTSAELRKYADWGIKSKAEILTAKPPKPNGVAEAAKIQADGHADVKGSDWGFGYQLAWMWDINDRARVGVNYRSKVSHTLKGDAEWAADGAAAKAMWSTMLAANGYTANEKARVKIVTPESLSVHGMYKVSDKADLFGDVTWTRHSRFDKAELVFEKEKTVVKGKSDRTTITPNWRNTYKVGFGGSYQISEPLQLRAGIAFDKSPVRNADYRMNSLPDGNRIWFSAGMKYHIGKNHVVDAAYTHIHINDTSYRTAKASGNDVDSKGASSARFKNHADIIGLQYTYKFK | not soluble |
| MGSDKIHHHHHHMKVLLTRPEGRNQSMVDALNERGIEHCVTPLLCVEATPALPPETSHPLANVDMVVCISANAVSFADDTFKANDANVKGWPKVPYFAVGHATWEALQQIDIDALEAPDDCQQTEGLLTLPTLQHIQGKKITIIRGVGGREALAEQLTSRGAQVRYWEVYQRACPPLDGTIITQQWIDLGIDTVVVTSGEVLDNLINLVPKELFAWLRSCHIIVPSNRVEAQAHAFGITQVTNANAANSKAVLNALKL | not soluble |
| MSLERKRVLVKFSGEALAGENGFGIENSILKFIASEIKELIKNQIEVGIVIGGGNIIRGVSAAKGGLIKRTSGDHMGMLATVINAIAIQEALESSGLEVRVQSAIQMEAFCETYIMRRAQRHLEKGRVVVFAAGTGNPYFTTDTTAILRAVEIDADMVIKATKVNGVYDKDPKQFDDAVFLNTLSYDEAMQDNIKVMDDTAIALAKDNKLPIVVCNMFEEGNLLKIIQGDTSLCSTVKNNEGHHHHHH | soluble |
| SGIVVSPILIPENQRQPFPRDVGKVVDSDRPEGSKFRLTGKGVDQDPKGTFRINENTGSVSVTRTLDRETIATYQLYVETTDASGKTLEGPVPLEVIVID | soluble |
| MRKMNLIVAMDAEGGIGKNGVLPWRIKKDMQYFASVTKNVSDQSKRNAVLMGRKCWESIPVTRRPLAGRLNIVLSRQLPAQKSDDYIVVNSLEAAMKLLSEPPFVDSIETIWNIGGAEIYDLALRENLVDEIHLTRIFKNFEADVHLKSLDFSKMEKVQNAEVSSENSEIFEENGLKFEFCKWKVVENH | not soluble |
| MGSDKIHHHHHHMGASFNQAGFVKRIFTSHGTTLFVDTSSGELRHGLMEYSPNNVLLTKDGKSAHIRFVDGPTDIVYFTEYSAISGSKRIDGIDALNLMPDNTLTIVDLPRNKFGLVQNGTFLSARSDGRITLSAPLCRGWENFHFRKDASEVSGVIVSHRIDGKIITFFIQDRTDIIQSILFGGDFYERDTLDLIRDRSTPGKVFVDIGANIGNHSIFMSKFCSPSEVIVFEPNPKAIEILKLNVLLNACANINTSYLGLALGSKAAQMRVFSPDPNNMGRAQMLDDDDGNVKCVAGDLLLQQKPVGLLKIDVEGSEFEVLRGMQGTIETWRPNILIEVWPQSQQDLFSWCDSFRYVVQETFPTDNNYFLAPIERQS | not soluble |
| MAHHHHHHMTFCGFGCVSTSEVGIIENCGKFDRTADPGCFCIVPCVESVRGVVSLKVAISTVRVETKTRDNAVVNIETRLHYKVIAECAEDAFYRFSNPSEQIASFAASVVRGEVPKYTLDELFLMSDEIKKVVSAELTEKLRGFGFSLESTLLTRIEPSASVKTAISQTQINAYRRTAAEHESELNKILAVKAAEADYEEKRLSGVGLAQERQAIMKGLKSSIESFVNAVPSMRAKDVMNLLLLNQYFDAMKEVGSGKSNKLILMPNTCGAAPNFMADLVAAQAGAARMM | not soluble |
| FTEYGAEYKIEVGILKDVVTLTLDTSGEGLHKRGYRENSGGAPIKETLAAAMVLLSDWNPDIELADPMCGSGTIAIEAALIGKNIAPGLKRRFVSEEWDIIPKDLWSDLRKHARNSINDKEFNILCSDIDGWVIKTARANAKKAGVDKYISFQKLPMQDFSSKRKGGFIITNPPYGERLGEVKEVEKLYKDMGRVFKALDKWSYFIITAHEKFEDCFGRKSNKNRKLYNGKLKCYYYQYFGDRK | not soluble |
| MGSDKIHHHHHHMILKFLNETLPWVRKPSRYIGREINSVVKDPEEISLRIALVFPDTYEVGTSNHGLEILYHILNEQPDVWAERSYLPWIDMIERMKEKDIPLYTMESYTPLYQMDAVGISLEYELSYTNVVEVLKLSKIPIFFWERKRRDPIVLGGGPCSSNPEPIYGFFDAILIGDGEEAILEIAQVLKETKGEERETIWKELSRIEGVYVPAFYEQKGRKIVPVSPEYPRTIKRRIVKDLNSQPVPVKKIVPNVESVHDRAVIEVARGCTRGCRFCHASVYYRPVRERSLENILENVEEMLKNTGYEEVSLLSLSTMDHTQIGEIVSELLKRYSEKKIAVSIPSTRMDRFGVEIAGRIASVRKTGLTFAPEAATQRLRNIINKNISEEDIFATLEAAKKSGWRRVKLYFMMGLPGETNEDLEEMVKLLERVKRLGFKEVSASVSVFVPKPHTPFQFARQISPEEAYEKIKTLKRAKRSARISYHDPRMSLLEGVFSRGDRKLLDLIVKAHELGALFDEWSEMFRFDLWEKAFDETGIDPNDYLREIDPSEDFPWDHIDMGVTKEFLKEEYRKALKGETTDDCRWNRCYLCGVCFRFGVKNVLFGGERG | not soluble |
| MMIMERHYTLKEASKILGVSIKTLQRWDKAGKIKCIRTLGGKRRVPESEIKRILGIKDKEQRKIIGYARVSFNAQKDDLERQIQLIKSYAEENGWDIQILKDIGSGLNEKRKNYKKLLKMVMNRKVEKVIIAYPDRLTRFGFETLKEFFKSYGTEIVIINKKHKTPQEELVEDLITIVSHFAGKLYGMHSHKYKKLTKTVKEIVREEDAKEKE | not soluble |
| MTTKYAALLRGINVGGSRKVPMADLRALLTSLGHDAVRTHLQSGQAVFAAAHGDEDSLAAELAEAIGERFGFPVDVIVRDHAYLRSVVEACPFPAAELEARQLHVTYFSAPVEADRFAAIDAPAFRPEEFRLGDRALYLYAPDGLGRSKLAEALARPRVNKGLVATSRNWNTVTKLVELTGP | not soluble |
| MAKEKKRGFFSWLGLGRQSEEPAAEPLATEKEGVTEQEDVIEQTGVIEPTDVIEQTVEHVISEKTTEAPAENAFIEVELREQVAAVIPTEPNNAIMSEGVPDTLPERAVAESVVAELVETGDNAAIVHDEIIEPITQVTEAGGELSLVKPGIEGDTTEQGGPTDNLPKRSLTEDNLIIDVPTPQAVVEESRVDAVEQPTETSEVEEVEEVEEVEEVEEVEEKIIPVAAQEQERPTKEGFFARLKRSLIKTKQNLGSGFMGLFSGKKIDDDLFEELEEQLLIADVGVETTRKIITSLTEHTSRKQLKDADALYGKLKEEMSEILSKVDKPLDVSGKSPYVILMVGVNGVGKTTTIGKLARQFQAEGKSVMLAAGDTFRAAAVEQLQVWGERNKIAVVAQHTGADSASVIFDAIQAAKARGIDVLLADTAGRLQNKAHLMEELKKIVRVMKKLDGDAPHEVMLTLDASTGQNAVSQAKLFNEAVGLTGITLTKLDGTAKGGVIFAIADQFEIPIRYIGVGEGIEDLRPFKADEFIEALFARED | not soluble |
| MVIQLQKGQKIDLGKTSPGLTKAVIGLGWDIKSYDGGSDFDLDASAFLLDANGKCTKETDFIFYNNLQSPCGSVLHTGDNRTGEGEGEGDDEQLVVDLKKVPADVHRIAITVTIYDAEGRSQNFGQVGNAFVRLANEETNEEVLRFDLGEDFSIETAVVFCELYRHNGQWKFNAVGSGFQGGLGALVRAYGLDA | not soluble |
| TDGQLTKQHVRALAISALAPKPHETLWDIGGGSGSIAIEWLRSTPQTTAVCFEISEERRERILSNAINLGVSDRIAVQQGAPRAFDDVPDNPDVIFIGGGLTAPGVFAAAWKRLPVGGRLVANAVTVESEQMLWALRKQFGGTISSFAISHEHTVGSFITMKPALPVHQWTVVKALTKEL | soluble |
| MGSDKIHHHHHHMRRDTFAGRRTQQPACQIHRFARTDKCYRHQKNPAERRHFGLSQCPHRESIVFVYTKMYILLMDVDRVQVRAFRANIAEYLEQALQGQRIVIERHGGPVAALVPLADLYQITRKEKAMGHRIALNNVSGGEGKTFLTFHLAFALADLGFRVAVLDCDPQASLTKRFGLHDEEGAHQSGAETILPVFEVDDDPALPSPVTVEGIDVWPANRQLIDADTRIMTNMMRLGNLGEALDRIQDQYDFILLDTRPNVSPLLTASTAAARLFLVPIGAHKGLENLDELLRLVKLARKQDRSARIAFFIPNKVTSTRMGKNVLQSISAYTEVAPISPPVRQATIGPEAELFRTGITRHAPKSPLAGDIRTLANALVKATEQVEDAQ | not soluble |
| MSNGGKRPPEDDSKLPYYKLVVIGDGGVGKSSLTIQFFQKQFVDYYDPTIEDQYIQHCEIDGNWVIMDVLDTAGQEEFSAMREQYIRGGRGFLLVFSVTERKSFEEAHKLYNQVLRVKDRSEYPVLLVANKVDLINQRVVSEQEGRELAAQLKLMYIETSAKEPPVNVDAAFHELVRIVRSFPSDEGDHEASMASVPRTKKRKDKGKCLIS | soluble |
| NYYERHIGDYARDTGYLSVLEHGIYCLLLDRYYATEQPIPANKAHRIARAHSKKEKSAVDVVLDEFFLLQ | not soluble |

From the DeepSol protein solubility set
